Measurements: patent US12491259B2, “Anti-variable MUC1* antibodies and uses thereof” (Minerva Biotechnologies Corporation, priority 2022, dated 2025)

B1: MNC2-MMAF (conjugate)
VH: EVQLVESGGGLVKPGGSLRLSCAASGFTFSGYAMSWVRQAPGKGLEWVSTISSGGTYIYYPDSVKGRFTISRDNAKNSLYLQMNSLRAEDTAVYYCARLGGDNYYEYFDVWGKGTTVTVSS
VL: DIVLTQSPASLAVSPGQRATITCRASKSVSTSGYSYMHWYQQKPGQPPKLLIYLASNLESGVPARFSGSGSGTDFTLTINPVEANDTANYYCQHSRELPFTFGGGTKVEIKRT
B2: MNC2-Deruxtecan (conjugate)
VH: EVQLVESGGGLVKPGGSLRLSCAASGFTFSGYAMSWVRQAPGKGLEWVSTISSGGTYIYYPDSVKGRFTISRDNAKNSLYLQMNSLRAEDTAVYYCARLGGDNYYEYFDVWGKGTTVTVSS
VL: DIVLTQSPASLAVSPGQRATITCRASKSVSTSGYSYMHWYQQKPGQPPKLLIYLASNLESGVPARFSGSGSGTDFTLTINPVEANDTANYYCQHSRELPFTFGGGTKVEIKRT
B3: MN20A10-MMAF (conjugate)
VH: QVQLVESGGGLVKPGGSLRLSCAASGFTFSTYAMSWIRQAPGKGLEWVASIGRAGSTYYSDSVKGRFTISRDNAKNSLYLQMNSLRAEDTAVYYCARGPIYNDYDEFAYWGQGTLVTVSS
VL: EIVLTQSPATLSLSPGERATLSCKSSQSVLYSSNQKNYLAWYQQKPGQAPRLLIYWASTRESGIPARFSGSGSGTDFTLTISSLEPEDFAVYYCHQYLSSLTFGGGTKVEIKR

Key:
Assay in all cases: xCELLigence real-time killing assay (impedance)
Assay type in all cases: cell-based, human
[1] = system: NCI-H1975 lung cancer cells; conditions: for time course of effect: 40 hours versus 120 hours; for ADC concentration at which essentially all the lung tumor cells were killed: readout 40 hours; for ADC concentration at which essentially all the tumor cells were killed: readout 120 hours post ADC addition
Protocol: FIG. 51A-51I show traces from the real-time killing assays performed on an xCELLigence instrument. In this assay, impedance is measured in real-time. When the adherent cancer cells are killed and come off of the electrode surface, impedance (insulation) decreases. NCI-H1975 lung cancer cells were plated onto multi-electrode-well plates at 5,000 cells per well and allowed to adhere and grow for 24 hours before the addition of ADCs. Either MNC2-MMAE, DAR 4.1, MN20A10-MMAE, DAR 5.8, MNC2-MMAF, DAR 3.7, MN20A10-MMAF, DAR 3.8, MNC2-Deruxtecan, DAR 7.2, or MN20A10-Deruxtecan, DAR 4.6, was then added to the cancer cells. […] Taxol and Triton are added as the positive killing control. […].
FIGS. 56A-56D show traces from the real-time killing assays performed on an xCELLigence instrument. In this assay, impedance is measured in real-time. When the adherent cancer cells are killed and come off of the electrode surface, impedance (insulation) decreases. Here NCI-H1975 non-small cell lung cancer cells that express very low levels of MUC1*, were plated onto multi-electrode 96-well plates at 5,000 cells per well and allowed to adhere and grow for 24 hours before the addition of ADCs. Either MNC2-Exatecan, DAR 8.2, MNC2-Deruxtecan, DAR 4.0, MNC2-MMAE, DAR 4.1, or free Exatecan at 50 μM, was then added to the cancer cells.
(§1) To assess real-time killing of target cancer cells including breast cancer cells (T47D), non-small cell lung cancer cells (NCI-H1975) and pancreatic cancer cells (HP AF II) assays were performed on an xCELLigence RTCA MP Instrument (Agilent). Target Cancer cells were seeded onto a multi-electrode well plate at a density of 5000 cells/well (100 μL of a 50,000 cells/mL stock) and incubated for 24 hr in a 37° C./5% CO2 incubator. mAb MNC2 ADCs or mAb MN20A10-ADCs were prepared as a 2× solution in corresponding growth media and 100 μL of each concentration was added to target cells. As a positive control (100% cell killing) cells were treated with either 1% triton or 1 μM Taxol instead of ADC. After 40-120 hours incubation in a 37° C./5% CO2 incubator cell killing was assessed. In this assay, impedance is measured in real-time. When the adherent cancer cells are killed and come off the electrode surface, impedance (insulation) decreases.
(§2) MNC2-ADCs and MN20A10-ADCs were also assayed for their ability to kill both low and high MUC1* expressing cells by monitoring killing in real-time using an xCELLigence instrument. In the xCelligence system, target cancer cells, which are adherent, are plated onto electrode array 96-well plates. Adherent cells insulate the electrode and increase the impedance. The number of adherent cancer cells is directly proportional to impedance. […] Therefore, increasing impedance reflects the growth of the cancer cells and decreasing impedance reflects the killing of the cancer cells.

[2] = system: T47D wild-type breast cancer cells; conditions: for concentration showing potent / effective / comparable killing: after 120 hours; for ADC concentration at which essentially all the tumor cells were killed: readout 120 hours post ADC addition, DAR: MNC2-MMAE 4.1, MN20A10-MMAE 5.8, MNC2-MMAF 3.7, MN20A10-MMAF 3.8; for concentration at which target cells are effectively killed: within a 40 hour timeframe
Protocol: FIGS. 49A-49J show traces from the real-time killing assays performed on an xCELLigence instrument. In this assay, impedance is measured in real-time. When the adherent cancer cells are killed and come off of the electrode surface, impedance (insulation) decreases. T47D wild-type breast cancer cells were plated onto multi-electrode-well plates at 5,000 cells per well and allowed to adhere and grow for 24 hours before the addition of ADCs. Either MNC2-MMAE, DAR 4.1, MN20A10-MMAE, DAR 5.8, MNC2-MMAF, DAR 3.7, MN20A10-MMAF, DAR 3.8, MNC2-Deruxtecan, DAR 7.2, or MN20A10-Deruxtecan, DAR 4.6, was then added to the cancer cells. […] Taxol and Triton are added as the positive killing control. […] Taxol and Triton are added as the positive killing control. […]
as §1, §2
Breast cancer cell line T47D-wt expresses MUC1* at low to low-medium levels. Pancreatic cancer cell line HPAF II-wt expresses even lower levels of MUC1* and lung cancer cell line NCI-H1975 express still lower levels of MUC1*.

[3] = system: HPAF II-MUC1* pancreatic cancer cells; conditions: readout 120 hours post ADC addition
Protocol: FIGS. 53A-53I show traces from the real-time killing assays performed on an xCELLigence instrument. In this assay, impedance is measured in real-time. When the adherent cancer cells are killed and come off of the electrode surface, impedance (insulation) decreases. HPAF II-MUC1* pancreatic cancer cells, engineered to express more MUC1*, were plated onto multi-electrode-well plates at 5,000 cells per well and allowed to adhere and grow for 24 hours before the addition of ADCs. Either MNC2-MMAE, DAR 4.1, MN20A10-MMAE, DAR 5.8, MNC2-MMAF, DAR 3.7, MN20A10-MMAF, DAR 3.8, MNC2-Deruxtecan, DAR 7.2, or MN20A10-Deruxtecan, DAR 4.6, was then added to the cancer cells. […] Taxol and Triton are added as the positive killing control. […] Taxol and Triton are added as the positive killing control. […] As indicated, essentially all the pancreatic tumor cells were killed at an MNC2-MMAE concentration of 56 nM. […] As indicated, essentially all the tumor cells were killed at an MNC2-MMAF concentration of 56 nM. […] As indicated, essentially all the tumor cells were killed at an MN20A10-MMAE concentration of 56 nM-19 nM. […] As indicated, essentially all the tumor cells were killed at an MN20A10-MMAF concentration of 56 nM.
as §1, with “When the adherent cancer cells are killed and come off the electrode surface, impedance (insulation) decreases.” left out

Row | Molecule | time course of effect [1] | ADC concentration at which essentially all the lung tumor cells were killed [1] [nM] | ADC concentration at which essentially all the tumor cells were killed [1] [nM] | concentration showing potent / effective / comparable killing [2] [nM] | ADC concentration at which essentially all the tumor cells were killed [2] [nM] | concentration at which target cells are effectively killed [2] [nM] | ADC concentration at which essentially all (nearly all, near total) tumor cells were killed [3] [nM] | concentration reaching approximately the same level of killing as MNC2-MMAE or -MMAF ([2]; by 100 hours, DAR 7.2) [nM]
1 | B1 | stasis at 40 hours, but killing at 120 hours | 167 | 56 | 167 | 167 | 500 | 56 | –
2 | B2 | stasis at 40 hours, but killing at 120 hours | – | – | 167 | – | – | 167 | 167
3 | B3 | stasis at 40 hours, but killing at 120 hours | 167 | 56 | 167 | 167 | 500 | 56 | –
